{"source": "patent US20100047226A1", "about": "(published 2010)", "assay_in_all_cases": "cell-based or functional assay", "key": {"[1]": {"molecular_target": "AKT2 (active form) (UniProt P31751 120-481, limits assumed)", "sequence (P31751 120-481 limits assumed)": "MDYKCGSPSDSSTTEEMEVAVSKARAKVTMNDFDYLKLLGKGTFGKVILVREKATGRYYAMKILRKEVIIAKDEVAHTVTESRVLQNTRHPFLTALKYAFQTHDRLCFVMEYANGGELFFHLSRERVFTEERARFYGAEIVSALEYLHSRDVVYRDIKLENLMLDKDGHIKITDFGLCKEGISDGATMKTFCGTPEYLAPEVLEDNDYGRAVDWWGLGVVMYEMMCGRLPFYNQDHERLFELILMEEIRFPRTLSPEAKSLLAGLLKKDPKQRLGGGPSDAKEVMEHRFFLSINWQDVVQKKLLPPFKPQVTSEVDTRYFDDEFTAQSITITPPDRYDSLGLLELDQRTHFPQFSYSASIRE"}, "[2]": {"molecular_target": "PI3K[…] (active form)"}, "[3]": {"molecular_target": "T1, SGK (active form) (UniProt O00141 60-431, limits assumed)", "T1 sequence (looked up)": "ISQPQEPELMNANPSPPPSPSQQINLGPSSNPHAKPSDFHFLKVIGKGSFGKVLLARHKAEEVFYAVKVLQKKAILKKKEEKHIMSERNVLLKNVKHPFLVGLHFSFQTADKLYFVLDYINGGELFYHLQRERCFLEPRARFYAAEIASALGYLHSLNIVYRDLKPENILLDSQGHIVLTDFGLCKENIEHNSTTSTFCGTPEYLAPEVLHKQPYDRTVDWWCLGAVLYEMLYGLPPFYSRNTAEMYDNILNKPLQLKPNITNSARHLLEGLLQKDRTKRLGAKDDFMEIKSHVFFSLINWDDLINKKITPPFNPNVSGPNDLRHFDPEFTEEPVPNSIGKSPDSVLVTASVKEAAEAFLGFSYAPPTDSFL"}, "[4]": {"molecular_target": "PAK3 (active form) (UniProt O75914 1-559, limits assumed)", "sequence (O75914 whole entry)": "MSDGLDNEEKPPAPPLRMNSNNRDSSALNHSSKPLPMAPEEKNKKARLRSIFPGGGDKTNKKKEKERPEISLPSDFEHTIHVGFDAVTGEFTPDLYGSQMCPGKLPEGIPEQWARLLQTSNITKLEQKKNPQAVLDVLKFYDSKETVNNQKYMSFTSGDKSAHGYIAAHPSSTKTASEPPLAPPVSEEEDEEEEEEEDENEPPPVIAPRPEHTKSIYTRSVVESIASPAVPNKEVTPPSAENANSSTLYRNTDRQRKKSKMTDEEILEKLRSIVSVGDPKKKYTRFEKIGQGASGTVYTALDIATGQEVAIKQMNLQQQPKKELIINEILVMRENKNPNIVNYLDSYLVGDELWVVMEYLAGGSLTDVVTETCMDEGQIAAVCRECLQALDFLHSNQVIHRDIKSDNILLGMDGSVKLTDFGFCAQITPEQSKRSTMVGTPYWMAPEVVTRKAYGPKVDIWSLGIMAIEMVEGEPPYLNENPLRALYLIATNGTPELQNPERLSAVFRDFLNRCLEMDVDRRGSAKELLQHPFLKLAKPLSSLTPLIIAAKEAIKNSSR"}, "[5]": {"molecular_target": "Abl (active form) (UniProt P00519 27-1130, limits assumed)", "sequence (P00519 27-1130 limits assumed)": "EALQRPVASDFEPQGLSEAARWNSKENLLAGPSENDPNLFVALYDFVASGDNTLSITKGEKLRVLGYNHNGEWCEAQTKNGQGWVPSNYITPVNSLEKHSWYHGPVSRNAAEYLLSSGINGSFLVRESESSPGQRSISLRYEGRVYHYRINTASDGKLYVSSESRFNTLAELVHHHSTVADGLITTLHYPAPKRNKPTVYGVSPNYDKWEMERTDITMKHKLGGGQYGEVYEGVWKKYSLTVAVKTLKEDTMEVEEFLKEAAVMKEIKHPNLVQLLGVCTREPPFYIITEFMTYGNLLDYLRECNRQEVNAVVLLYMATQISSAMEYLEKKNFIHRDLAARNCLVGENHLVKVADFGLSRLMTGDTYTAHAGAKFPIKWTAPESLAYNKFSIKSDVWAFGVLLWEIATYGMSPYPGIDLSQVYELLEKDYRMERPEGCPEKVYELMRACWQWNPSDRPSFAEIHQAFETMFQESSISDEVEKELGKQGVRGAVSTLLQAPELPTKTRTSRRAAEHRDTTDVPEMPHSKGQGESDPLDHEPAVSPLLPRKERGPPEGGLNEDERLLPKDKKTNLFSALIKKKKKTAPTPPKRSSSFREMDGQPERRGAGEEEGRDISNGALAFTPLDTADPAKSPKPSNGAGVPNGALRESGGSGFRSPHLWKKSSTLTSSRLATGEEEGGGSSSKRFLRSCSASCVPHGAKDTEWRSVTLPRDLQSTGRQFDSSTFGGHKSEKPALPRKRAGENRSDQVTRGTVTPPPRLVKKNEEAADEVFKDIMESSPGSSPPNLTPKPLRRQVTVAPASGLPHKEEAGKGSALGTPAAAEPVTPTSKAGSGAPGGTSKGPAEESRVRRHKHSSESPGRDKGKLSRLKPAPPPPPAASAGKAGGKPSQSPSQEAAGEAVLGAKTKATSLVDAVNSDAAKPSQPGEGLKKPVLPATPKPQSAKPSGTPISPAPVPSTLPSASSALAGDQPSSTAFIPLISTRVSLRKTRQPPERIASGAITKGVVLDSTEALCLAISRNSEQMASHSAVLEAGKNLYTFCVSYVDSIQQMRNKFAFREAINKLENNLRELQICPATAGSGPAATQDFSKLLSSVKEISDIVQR"}, "[6]": {"molecular_target": "p70S6K (active form) (UniProt P23443 1-421)", "sequence (P23443 1-421)": "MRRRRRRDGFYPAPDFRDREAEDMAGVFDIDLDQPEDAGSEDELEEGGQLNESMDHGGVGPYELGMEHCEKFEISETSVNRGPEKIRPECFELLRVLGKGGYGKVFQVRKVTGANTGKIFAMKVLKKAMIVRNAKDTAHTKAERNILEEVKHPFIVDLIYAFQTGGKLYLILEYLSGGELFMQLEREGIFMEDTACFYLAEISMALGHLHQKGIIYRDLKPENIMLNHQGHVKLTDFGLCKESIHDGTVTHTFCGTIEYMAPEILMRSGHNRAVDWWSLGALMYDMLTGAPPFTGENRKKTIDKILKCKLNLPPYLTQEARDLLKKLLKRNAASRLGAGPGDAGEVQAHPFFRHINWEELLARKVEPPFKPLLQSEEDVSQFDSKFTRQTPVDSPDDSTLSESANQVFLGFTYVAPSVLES"}, "[7]": {"molecular_target": "TrkB (active form) (UniProt Q16620 526-822, limits assumed)", "sequence (Q16620 526-822 limits assumed)": "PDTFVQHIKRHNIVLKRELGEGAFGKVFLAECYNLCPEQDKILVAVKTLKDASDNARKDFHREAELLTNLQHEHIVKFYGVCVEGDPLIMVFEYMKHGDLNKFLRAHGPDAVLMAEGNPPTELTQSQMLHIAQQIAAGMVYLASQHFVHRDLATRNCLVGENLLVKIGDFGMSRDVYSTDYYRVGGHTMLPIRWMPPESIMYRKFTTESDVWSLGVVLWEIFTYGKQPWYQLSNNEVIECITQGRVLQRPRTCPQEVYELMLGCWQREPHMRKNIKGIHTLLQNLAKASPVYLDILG"}, "[8]": {"molecular_target": "JAK3 (active form) (UniProt P52333 781-1124, limits assumed)", "sequence (P52333 781-1124 limits assumed)": "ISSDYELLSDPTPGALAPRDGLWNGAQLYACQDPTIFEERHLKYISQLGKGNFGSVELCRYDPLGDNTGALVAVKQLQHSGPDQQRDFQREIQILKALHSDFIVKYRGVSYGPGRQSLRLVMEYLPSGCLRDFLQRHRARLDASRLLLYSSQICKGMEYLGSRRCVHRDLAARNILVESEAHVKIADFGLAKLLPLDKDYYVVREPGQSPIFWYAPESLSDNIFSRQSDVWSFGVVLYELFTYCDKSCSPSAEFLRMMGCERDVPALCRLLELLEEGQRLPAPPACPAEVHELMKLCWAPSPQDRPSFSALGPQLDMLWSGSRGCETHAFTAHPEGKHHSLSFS"}}}
{"binder": "AKRVKGRTWTLCGTPEY", "note": "[ZaTa peptide (PKAc fragment flanking Thr-197)]", "values": [{"measurement": "in vitro kinase assay at ten times the IC50 for AKT1", "setting": "[1]", "value": 63, "unit": "%"}, {"measurement": "in vitro kinase assay at ten times the IC50 for AKT1", "setting": "[2]", "value": 72, "unit": "%"}, {"measurement": "in vitro kinase assay at ten times the IC50 for AKT1", "setting": "[3]", "value": 73, "unit": "%"}, {"measurement": "in vitro kinase assay at ten times the IC50 for AKT1", "setting": "[4]", "value": 83, "unit": "%"}, {"measurement": "in vitro kinase assay at ten times the IC50 for AKT1", "setting": "[5]", "value": 42, "unit": "%"}, {"measurement": "in vitro kinase assay at ten times the IC50 for AKT1", "setting": "[6]", "value": 64, "unit": "%"}, {"measurement": "in vitro kinase assay at ten times the IC50 for AKT1", "setting": "[7]", "value": 84, "unit": "%"}, {"measurement": "in vitro kinase assay at ten times the IC50 for AKT1", "setting": "[8]", "value": 79, "unit": "%"}]}
